Test results published in patent US20050176630A1.
Each block holds one molecule with its values, some of them ahead of it. No end group written: not given here.

Legend:
[1] = target: MC3-R in mouse arcuate nucleus slices (mouse) (UniProt P33033); assay: cell-based or functional assay
[2] = target: µ opioid receptor on POMC neurons in mouse hypothalamic slices (mouse) (UniProt P42866); assay: cell-based or functional assay
[3] = target: T1, NPY Y2 receptor (expressed on a cell line); assay: receptor-binding study on a cell line expressing the NPY Y2 receptor; labelled ligand not named
T1 sequence (P49146 whole entry, species assumed, looked up): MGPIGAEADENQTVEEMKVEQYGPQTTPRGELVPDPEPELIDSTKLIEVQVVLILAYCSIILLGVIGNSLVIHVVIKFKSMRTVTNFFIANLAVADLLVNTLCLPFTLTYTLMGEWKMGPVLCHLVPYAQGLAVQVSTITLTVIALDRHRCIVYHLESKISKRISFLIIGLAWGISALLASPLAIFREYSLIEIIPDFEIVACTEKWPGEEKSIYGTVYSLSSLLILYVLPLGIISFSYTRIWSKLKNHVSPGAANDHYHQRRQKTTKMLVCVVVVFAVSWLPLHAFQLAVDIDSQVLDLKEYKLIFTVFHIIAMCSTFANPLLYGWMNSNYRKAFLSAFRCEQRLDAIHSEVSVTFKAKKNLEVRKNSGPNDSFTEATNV

Sequence of µ opioid receptor on POMC neurons in mouse hypothalamic slices (mouse) (P42866 whole entry): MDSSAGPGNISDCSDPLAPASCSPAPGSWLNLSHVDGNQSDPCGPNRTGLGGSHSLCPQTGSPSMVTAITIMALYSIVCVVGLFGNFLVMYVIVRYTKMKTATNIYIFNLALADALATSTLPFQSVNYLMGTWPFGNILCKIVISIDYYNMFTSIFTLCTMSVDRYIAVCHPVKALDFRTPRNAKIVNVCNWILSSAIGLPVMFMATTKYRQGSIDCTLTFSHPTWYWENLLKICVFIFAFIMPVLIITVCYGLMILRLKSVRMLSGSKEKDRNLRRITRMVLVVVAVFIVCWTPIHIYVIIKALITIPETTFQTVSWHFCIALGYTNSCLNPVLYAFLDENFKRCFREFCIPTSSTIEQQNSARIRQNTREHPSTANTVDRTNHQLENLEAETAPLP
Sequence of MC3-R in mouse arcuate nucleus slices (mouse) (P33033 whole entry): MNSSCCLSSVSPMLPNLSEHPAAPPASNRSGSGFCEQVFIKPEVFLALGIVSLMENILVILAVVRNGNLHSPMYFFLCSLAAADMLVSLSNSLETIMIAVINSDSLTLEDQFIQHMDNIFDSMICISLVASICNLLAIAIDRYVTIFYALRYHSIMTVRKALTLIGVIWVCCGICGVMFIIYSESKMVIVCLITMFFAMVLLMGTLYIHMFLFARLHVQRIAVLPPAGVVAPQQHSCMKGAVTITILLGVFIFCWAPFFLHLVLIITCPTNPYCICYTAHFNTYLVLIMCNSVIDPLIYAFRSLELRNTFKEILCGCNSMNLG

frequency of GABAergic IPSCs recorded from POMC neurons (D-Trp^8-γMSH 7 nM) [1]: 280%
Molecule: D-Trp^8-γMSH (peptide)

hyperpolarization of the membrane potential of POMC cells (Met-Enk 30 µM) [2]: 10 to 20 mV
Molecule: met-enkephalin (from UniProt P01210 100-104) (peptide)

IC50 [3]: 1.3 nM
Molecule: Ac-LRHYLNLLTRQRY (ends and bridges not checked) [N-acetyl (Leu^28, Leu^31) NPY (24-36)]
